{"source": "the supplement of paper PMC12042874", "note": "± gives the uncertainty stated by the source.", "data": [{"assay": "amyloid nucleation score (Sup35N fusion, yeast selection) (log enrichment); library NNK3; higher = more nucleation; inactive = no reads after selection", "how_it_was_run": "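Three technical output replicates were used for random libraries. Psi-negative yeast expressing peptides of 20 random codons fused to Sup35N were induced with 100 μM copper sulfate for 24 hours and grown 7 days at 30°C on medium lacking adenine and uracil, and input and output plasmid inserts were Illumina-sequenced, excluding sequences with under 100 input reads. The nucleation score is the DiMSum log enrichment of output over input reads, centred on the mode score of non-aggregating sequences.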", "values": [{"substance": "LKVPSVVNR", "amyloid nucleation score": "inactive"}, {"substance": "LKWQVRHLWGNDVVGHRYTH", "amyloid nucleation score": "-0.546 ± 0.6"}, {"substance": "LKYSDSSDI", "amyloid nucleation score": "0.235 ± 0.26"}, {"substance": "LLERDYR", "amyloid nucleation score": "inactive"}, {"substance": "LLFALDGFIAGWMCMWGDRF", "amyloid nucleation score": "inactive"}, {"substance": "LLFQL", "amyloid nucleation score": "inactive"}, {"substance": "LLFQSIVVY", "amyloid nucleation score": "inactive"}, {"substance": "LLFSGHYVGAYLGYVFPICS", "amyloid nucleation score": "inactive"}, {"substance": "LLGSFEGLIALYSGGWMAYR", "amyloid nucleation score": "-0.108 ± 0.77"}, {"substance": "LLGYASMASSFIYIQHNVLE", "amyloid nucleation score": "inactive"}, {"substance": "LLIFMFCLAFVFFFMAKDGN", "amyloid nucleation score": "inactive"}, {"substance": "LLIIGLKSAVGVW", "amyloid nucleation score": "inactive"}, {"substance": "LLIRVLYLWSLESISNG", "amyloid nucleation score": "inactive"}, {"substance": "LLKCYRPFSVFIYFNVLASG", "amyloid nucleation score": "inactive"}, {"substance": "LLKIFNNEVKITITFCLLYV", "amyloid nucleation score": "inactive"}, {"substance": "LLKRKLIVAFKKSMLFDFMV", "amyloid nucleation score": "inactive"}, {"substance": "LLLCS", "amyloid nucleation score": "0.402 ± 0.18"}, {"substance": "LLLRFFRYLGYKLMRTIE", "amyloid nucleation score": "inactive"}, {"substance": "LLLTYFMMGYYVVWYVFGYW", "amyloid nucleation score": "inactive"}, {"substance": "LLNTRGSRVMLLGHRLFDN", "amyloid nucleation score": "inactive"}, {"substance": "LLNWSYIKRLFLVGIKSGHR", "amyloid nucleation score": "inactive"}, {"substance": "LLSIRTSSCFCKRGSTKFED", "amyloid nucleation score": "0.176 ± 0.33"}, {"substance": "LLTARTITSCKQWPGTSRYT", "amyloid nucleation score": "inactive"}, {"substance": "LLTFSMVDKFLSDNSYLNGI", "amyloid nucleation score": "inactive"}, {"substance": "LLVGEIGYLEHTMHNCEVEG", "amyloid nucleation score": "inactive"}, {"substance": "LLVLRGYSDVIFKNTLYGNE", "amyloid nucleation score": "inactive"}, {"substance": "LLVYAVENPGLVWNSRHGLF", "amyloid nucleation score": "-1.37 ± 2.5"}, {"substance": "LLVYFE", "amyloid nucleation score": "inactive"}, {"substance": "LLWVQQHWLKNDTLVTYKAK", "amyloid nucleation score": "inactive"}, {"substance": "LLYMSECNELSIDRLVNLSK", "amyloid nucleation score": "inactive"}, {"substance": "LLYVICPVRINLRHWRATDS", "amyloid nucleation score": "0.487 ± 0.17"}, {"substance": "LMFGVIMPITDDMFYGQESV", "amyloid nucleation score": "inactive"}, {"substance": "LMIWVSDLSE", "amyloid nucleation score": "inactive"}, {"substance": "LMMLCLSVGMMKRSAYRLFT", "amyloid nucleation score": "inactive"}, {"substance": "LMQDLENVS", "amyloid nucleation score": "inactive"}, {"substance": "LMRNRFFNPVSGTFTASIGQ", "amyloid nucleation score": "-0.302 ± 1.1"}, {"substance": "LMRNSMLKTCFRSTAFH", "amyloid nucleation score": "inactive"}, {"substance": "LMTNRVVL", "amyloid nucleation score": "inactive"}, {"substance": "LMVVWMLYGNNTCYDALMLC", "amyloid nucleation score": "inactive"}, {"substance": "LNCAILASHSHYTK", "amyloid nucleation score": "inactive"}, {"substance": "LNCVSQMRVDRDANYSCNFF", "amyloid nucleation score": "-0.142 ± 0.78"}, {"substance": "LNEYNINDFTLFSCTFIGNV", "amyloid nucleation score": "2.73 ± 0.081"}, {"substance": "LNFGEFILMAGDLLTLMCVF", "amyloid nucleation score": "1.42 ± 0.12"}, {"substance": "LNFVWNFNWLYWFLYGIERV", "amyloid nucleation score": "inactive"}, {"substance": "LNGSCKCLKELFVCYRSWVN", "amyloid nucleation score": "-0.79 ± 0.93"}, {"substance": "LNIFTYMCVMALMCLEKITS", "amyloid nucleation score": "1.73 ± 0.11"}, {"substance": "LNLDCTS", "amyloid nucleation score": "inactive"}, {"substance": "LNLGILACSGKRLSQSCRLT", "amyloid nucleation score": "inactive"}, {"substance": "LNLWD", "amyloid nucleation score": "inactive"}, {"substance": "LNQLRSDITGLMSMTWDDLC", "amyloid nucleation score": "inactive"}, {"substance": "LNRSSLYFF", "amyloid nucleation score": "inactive"}, {"substance": "LNSIG", "amyloid nucleation score": "inactive"}, {"substance": "LNSKFMLASTLLAKW", "amyloid nucleation score": "inactive"}, {"substance": "LNSKIKLNYYLIF", "amyloid nucleation score": "0.108 ± 0.19"}, {"substance": "LNSYQDYSRGVLLKRKALLY", "amyloid nucleation score": "inactive"}, {"substance": "LNVGCLWRGDGGNRRAQWDV", "amyloid nucleation score": "inactive"}, {"substance": "LNYFR", "amyloid nucleation score": "inactive"}, {"substance": "LNYIIRRLIVIILFSQHQYY", "amyloid nucleation score": "inactive"}, {"substance": "LNYVLS", "amyloid nucleation score": "inactive"}, {"substance": "LPGFSTCFARCDWWEVQPQG", "amyloid nucleation score": "inactive"}, {"substance": "LPLFSLSTFFFVCVVCL", "amyloid nucleation score": "0.464 ± 0.14"}, {"substance": "LPLPFFQRVNNGKSVLGVHL", "amyloid nucleation score": "inactive"}, {"substance": "LPLSFSL", "amyloid nucleation score": "inactive"}, {"substance": "LPNSNTGKKCYGMNHSKENC", "amyloid nucleation score": "inactive"}, {"substance": "LPPFAWPRMIPWWGRAKVIS", "amyloid nucleation score": "inactive"}, {"substance": "LPRPFSYSGLR", "amyloid nucleation score": "-0.289 ± 0.59"}, {"substance": "LPSYLESYYCVRVISGFYLS", "amyloid nucleation score": "inactive"}, {"substance": "LPYPPAITALPRPCCVNHRV", "amyloid nucleation score": "inactive"}, {"substance": "LQFGVRINSLFYRMVSAVVG", "amyloid nucleation score": "inactive"}, {"substance": "LQNLNGLIVKSCL", "amyloid nucleation score": "inactive"}, {"substance": "LQRRYFGSRSLGTFARMFQH", "amyloid nucleation score": "inactive"}, {"substance": "LQTMTDSFKRTQCLCSYKCT", "amyloid nucleation score": "inactive"}, {"substance": "LRCGSSSDELCMREWFRVDL", "amyloid nucleation score": "inactive"}, {"substance": "LREVRTAVSLGQMGRGLQA", "amyloid nucleation score": "inactive"}, {"substance": "LRFRTDFSSASNK", "amyloid nucleation score": "1.18 ± 0.081"}, {"substance": "LRFVSKLWWFISMSSRSHLH", "amyloid nucleation score": "inactive"}, {"substance": "LRGFKEVTTRLKVRLQLGM", "amyloid nucleation score": "-0.731 ± 1.3"}, {"substance": "LRGGKFNQYWIGRHGLSSVS", "amyloid nucleation score": "-0.562 ± 1.1"}, {"substance": "LRGTD", "amyloid nucleation score": "inactive"}, {"substance": "LRKPYLEY", "amyloid nucleation score": "inactive"}, {"substance": "LRMSTSGIPYYMSGMSYYNI", "amyloid nucleation score": "inactive"}]}]}
